Measured values from PMC1142346.

Key:
Experiment in all cases: fluorescence anisotropy
BLM642-1290 C1063N = BLM642-1290 C1063N (Homo sapiens, UniProt P54132 642-1290, C1063N)
BLM642-1290 WT = BLM642-1290 WT (Homo sapiens, UniProt P54132 642-1290)
[1] = biological target: BLM642-1290 zinc-demetalated (WTzn-) (Homo sapiens, UniProt P54132 642-1290)
BLM642-1290 C1055N = BLM642-1290 C1055N (Homo sapiens, UniProt P54132 642-1290, C1055N)
[2] = biological target: BLM642-1290 C1055N/C1063N (Homo sapiens, UniProt P54132 642-1290, C1055N;C1063N)
Chain of BLM642-1290 C1055N/C1063N (P54132 642-1290 C1055N/C1063N): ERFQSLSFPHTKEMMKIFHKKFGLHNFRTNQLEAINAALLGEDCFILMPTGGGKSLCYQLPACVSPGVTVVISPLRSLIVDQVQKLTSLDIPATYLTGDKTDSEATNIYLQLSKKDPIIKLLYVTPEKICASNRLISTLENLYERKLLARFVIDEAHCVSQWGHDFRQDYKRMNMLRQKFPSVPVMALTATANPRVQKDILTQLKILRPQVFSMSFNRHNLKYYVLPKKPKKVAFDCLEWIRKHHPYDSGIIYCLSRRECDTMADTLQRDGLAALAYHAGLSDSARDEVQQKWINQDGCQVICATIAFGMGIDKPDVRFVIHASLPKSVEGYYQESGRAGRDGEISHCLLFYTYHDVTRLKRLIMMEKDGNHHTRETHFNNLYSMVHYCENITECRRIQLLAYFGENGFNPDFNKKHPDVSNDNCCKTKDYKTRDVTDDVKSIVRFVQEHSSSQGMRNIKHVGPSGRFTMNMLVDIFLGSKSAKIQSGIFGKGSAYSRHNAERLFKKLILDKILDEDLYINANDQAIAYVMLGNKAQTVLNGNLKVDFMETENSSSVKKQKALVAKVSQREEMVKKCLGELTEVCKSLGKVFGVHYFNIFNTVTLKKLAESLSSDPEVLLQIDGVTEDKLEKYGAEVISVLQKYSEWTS

Chain of BLM642-1290 WT (P54132 642-1290): as the sequence (P54132 642-1290 C1055N/C1063N) above, with N414C, N422C counted along it
Chain of BLM642-1290 zinc-demetalated (WTzn-) (P54132 642-1290): as the sequence (P54132 642-1290 C1055N/C1063N) above, with N414C, N422C counted along it
Chain of BLM642-1290 C1063N (P54132 642-1290 C1063N): as the sequence (P54132 642-1290 C1055N/C1063N) above, with N414C counted along it
Chain of BLM642-1290 C1055N (P54132 642-1290 C1055N): as the sequence (P54132 642-1290 C1055N/C1063N) above, with N422C counted along it

Binder GGGTTAGGGTTAGGGTTAGGG (structured_DNA) [F21 G4 DNA] has a Kd (BLM642-1290 C1063N) of 1990 nM, a Kd (BLM642-1290 WT) of 4.57 nM and a Kd [1] of 4.85 nM.

B1: A/B partial duplex (23mer duplex with ss tails), fluorescent (dsDNA)
DNA 1: GCACTGGCCGTCGTTTTACGGTCGTGACTGGGAAAACCCTGGCG
DNA 2: TTTTTTTTTTTTTTTTTTTTTTAGCCGTAAAACGACGGCCAGTGC
Work on B1 yielded a Kd (BLM642-1290 C1055N) of 56 ± 1.8 nM and a Kd [2] of 209 ± 3.5 nM.
